Measured values published in the supplement of paper PMC12042874.
± gives the uncertainty stated by the source.

Experiment: amyloid nucleation score (Sup35N fusion, yeast selection) (log enrichment); library NNK3; higher = more nucleation; inactive = no reads after selection
Method in brief: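 On medium lacking adenine and uracil, psi-negative yeast expressing peptides of 20 random codons fused to Sup35N were grown 7 days at 30°C after a 24-hour induction with 100 μM copper sulfate. Illumina sequencing of input and output plasmid inserts gave the reads, and sequences under 100 input reads were excluded. The nucleation score is the DiMSum log enrichment of output over input reads, centred on the mode score of non-aggregating sequences.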

Substance	amyloid nucleation score
AAGRGWTGEALMHRNAQCDS	0.244 ± 0.87
ACDTVEDGTSGGHCWVCGDG	inactive
ACLLLSDLNY	inactive
ACMLNEWRNVVRPYLCLSKN	inactive
ACNDVIHVASSRDLMGAHPR	-0.396 ± 0.87
ACTCDRAGDRLVVWLLDGYL	inactive
ACTLDTLFSFVPSHNWSGQK	inactive
ACTRWS	inactive
ADKWSHGAHDRVVLVLRVCR	inactive
ADLGATAAINQKAWVGDQ	inactive
ADNKLANWSGAVREWEVRRV	-0.523 ± 0.95
ADNRHIFFIGFQRVLSFSWA	1.25 ± 0.1
ADSMTTGLVHGWCYFCMWFN	2.16 ± 0.065
AERAWYGGCLNRILLSVCCH	inactive
AFAMRMTCSGLVNICHFAWL	0.287 ± 0.38
AFDTILAEYLCYFLL	1.7 ± 0.1
AFFPHELRDMFRSNLYCCYA	inactive
AFSFMLACWQRRIAQALAYL	inactive
AFSFPSERVWVWNFHMRDKE	3.11 ± 0.058
AFTGTDSKF	inactive
AFYFRT	inactive
AGGCDRYVHPRFLDKRSSWS	inactive
AGHSEA	inactive

Substance	amyloid nucleation score
AGKSLLRVQYP	inactive
AGNLLARPSLQKGCLLDELP	-0.73 ± 1.7
AGQNQVRDGKVIVKACSCMS	inactive
AGTSKMNIYSMHAV	inactive
AGWCYFASSVLVRTSWSQCA	inactive
AGYGSVSRLSMEKMEFNQ	inactive
AHCLTRGSVTPCPLGSRAVR	inactive
AHGHISCLLTYTAYWYCCV	0.502 ± 0.19
AHRFITMSLERVSTYRGLYV	inactive
AICSPTLLDYYFLFKVLPGS	inactive
AILEVLT	0.671 ± 0.17
AIRFVNPMFSFWVSNWNYAG	inactive
AISPNASTWTACTFYCMDSG	-0.027 ± 0.26
AIVESKPYLRSVL	inactive
AIVFGGNAQKSHTHDTGAMG	inactive
AIVFNFDYLLYLQNRSNLMH	inactive
AIYAHYYRTWVFWYYMVPGC	inactive
AKGAMLCTMT	inactive
AKIVECM	inactive
AKSMVWNGGVWYLFQEYARG	inactive
AKTSADYTYVASRTDFGCVN	inactive
ALALMFVEGCVIYMGIGC	1.93 ± 0.076
ALESTMVWLSQRQGRFVHSL	-0.284 ± 0.7

Substance	amyloid nucleation score
ALGIYRTIYCVIVFG	inactive
ALIHFGIEVKRYICWMQNLV	inactive
ALKDGIFFFHA	inactive
ALKVYADMIDYLWLRTFMSW	inactive
ALLYRERKYSMLVKFVVYRS	inactive
ALRARERWLRLPALAWKVMY	inactive
ALSNN	inactive
ALSVFRGLCVLENFSKISGC	inactive
ALTHHVVYLMAGKNVTTS	inactive
ALTLMCFSVLGFYYVVMYCF	inactive
ALVRGIVSTPDSRM	inactive
ALVWFENVSVQELQWIKLTS	inactive
ALWFIHYGAG	0.98 ± 0.24
AMEIRNVQELSIGPGNWMET	inactive
AMLLCTYFRKAVYLNAK	inactive
ANDVISYTFFLSEERG	inactive
ANNLAFSRGG	-0.977 ± 1.5
ANNPLLG	inactive
ANTFKVWPKDICAGTVYM	inactive
ANVWPISPLSGGVRLWMFGR	inactive
ANWIVGC	inactive
ANWVVVLLNRQASLGRFAYV	inactive
APGCGTNLGMIFALGWALWR	inactive

Substance	amyloid nucleation score
APIVKL	inactive
APLMTYMVMTFMWDSKELPD	inactive
APVKLAGLHTSVRARGIGYW	-0.192 ± 1.3
ARHVENSAKGFVGYLRRMHV	inactive
ARLETHCFMRRRGQF	inactive
ARLVYFFLYGLSCRMHCLCW	inactive
ARMLSVYSSESQCVTPGWCC	inactive
ARSARGLGQRYLLYMYCLWL	inactive
ARSDGA	inactive
ARVLDAWSYRVARKNLWESL	inactive
ASATAYSVNLRLKVTVNM	1.71 ± 0.12
ASFKFGG	inactive
ASGDLAGSKLVSYRVATLIN	inactive
ASLISILLALDMSMGLSLEP	inactive
ASLVKSHDHMRASHLGGLHK	inactive
ASVACLAFP	inactive
ASWKLITCQNSAFR	inactive
ATAPYDTVCRLYCLSWPPRS	inactive
ATNLWR	inactive
ATRASPMSGTYSCTFKIIFL	2.94 ± 0.082
ATRTNYCACPLLMARWMSVL	inactive
ATSEYWILLVFYLCDIAQVS	inactive
ATTNKLIYSHMVGKMLTSSF	inactive

Substance	amyloid nucleation score
AVGNCSSWGYGSSTLP	inactive
AVIRFCPGRNSESDSRAHRP	inactive
AVLVDSWRWERFYFMTTIKT	inactive
AVMVRRYFVDWCRQEVTFHV	0.088 ± 0.62
AVNYMYSQSMKIVRDCFVIV	inactive
AVRSFLTWISMN	inactive
AVSAVCSAVCGLMSSSTDMD	0.527 ± 0.26
AVTCVDSWMRDTG	inactive
AVVFCVSEYYQQKRYLNSSQ	inactive
AVVVIQRYLAVHCWVFGERI	-0.57 ± 0.93
AVYSWCARTYSILSTLRGEF	inactive
AWPIIRFYIQRYLWIVRGRG	inactive
AWQYVGMISFM	inactive
AYAIGHEDCEVYQLLVKLLG	inactive
AYKAAYAVWCVIINGGLF	inactive
AYKYVTVCLVDSSVLTSNRG	inactive
AYRLTLCLPSWVWL	inactive
CAHVSFKLVFSINWWSNLLN	inactive
CAISLVRLTVQSEEIRVDRN	inactive
CALSHYGKFDYYPSFVSFKQ	inactive
CANAYWDVCCCYVFLMGLGG	-0.268 ± 1.1
CANFRV	inactive
CAQMPCMLENGP	inactive

Substance	amyloid nucleation score
CASPSGFSSQGVTWFVEV	inactive
CATFFAKLQYNYH	1.28 ± 0.12
CAWVHIS	inactive
CAYPVKKCMPYQYMKKFVLV	inactive
CCAVLFRGVRGMVRCNWNFD	inactive
CCCRIEYHGVHGATSHSQTV	inactive
CCFIYECSLRNLSALVDDQR	1.18 ± 0.091
CCFSTGCHEKCSSLDDMCVF	inactive
CCFYRSSWVFKLGEGRVIIP	0.319 ± 0.43
CCGGFIVMQQAGGSPIDGQG	0.29 ± 0.2
CCGINGIKLAAANRWSPVEH	inactive
CCLFADCDLRYFSNRTFFNC	inactive
CCLTIGSKPIYHCWQLGIMA	inactive
CCMSSIIVCYCWMYGTTKLM	0.927 ± 0.1
CCMVNRGTRQVSRWIVPNWR	inactive
CCNDWR	inactive
CCRLDDIRQ	inactive
CCRSWRSYSTVVFICGFLYW	inactive
CCRVRTS	inactive
CCSGLAMAFRFYASYSGAIY	inactive
CCSSRMYLEGCPSLRLMEHI	inactive
CDIISMALEPQVCTEYDLQR	1.38 ± 0.1
CDMSCMTKSCPPSYPN	-0.395 ± 0.8

Substance	amyloid nucleation score
CDRTIMRSYDPAL	1.16 ± 0.099
CDSYKVYRVLNKQGWFCRGS	inactive
CDTSCWLLSTPLADWTIAFN	inactive
CELAKLVRNDSFRKDNQGYS	inactive
CELYHMNRDF	inactive
CEYAYFGMDYLLEAGSKSDY	inactive
CFAYG	-0.533 ± 0.4
CFCFLIM	1.05 ± 0.21
CFDAYIAYLSMRCWYPKNNC	0.015 ± 0.71
CFFINRRTLKGLT	inactive
CFLSGWTLTVSVLLVDYRKL	inactive
CFMHPADIPSMAVVVYLCAG	inactive
CFNGRCARLYISIIQVIELS	inactive
CFWFNHSNRRGQFFH	-0.286 ± 0.77
CFYGDFSSILSRKVYDYYIR	inactive
CGCCHVVVNSWW	2.65 ± 0.062
CGCGWVLWPYKYRSDWLGGK	inactive
CGRLHDVG	inactive
CGTCSDYGYHFGCTDRGVDC	inactive
CGVYPYPWVVMFTDCKMNRW	inactive
